# Data: the nanobody polyreactivity screen of Harvey et al. (2022)
# Assay: yeast display, Sf9 membrane polyspecificity reagent, FACS + sequencing; frameworks hold sequencing errors
# Summary of the method: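 Galactose induction of a Saccharomyces cerevisiae BJ5465 synthetic nanobody display library ran 36–48 hours. The cells were then stained for 1 hour at 4 °C with 10% biotinylated, detergent-solubilized Sf9 membrane reagent, pulled down on streptavidin microbeads and FACS-sorted into low and high (top ~1%) gates on expression and reagent-binding fluorescence. Labels for polyreactivity follow the gate of origin.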
row,Sequence,polyreactivity (PSR sort gate)
1,QVQLVESGGGSVQAGGSLRFSCADSGFTFRKNAMGWYRQAPGKERELVAAISVSGGRTYYADSVKGRFTISRDNAKNTFYLQMNSLKPEETAVYYCAARRYVLVHKDDYWGQGTQVTVSS,high polyreactivity
2,QVQLVESGGGSVQAGGSLRLSCAASGRTFVRYAMGWYRQAPGKERELVAAITWSGGSTYYADSVKGRFTISRDNAKNTVYLQMNSLKPEDTAVFDCAAYPVQWGSLYDYWGQGTQVTVSS,high polyreactivity
3,QVQLVESGGGVDQAGGSLRLSCAASGSIFDLNARGGYRQAPGTERELVASIRDSGGRTYYADSVKGRFTISRDNAKNTVYLQMNSLKPEDTALYYCAAKPRRPGRGYWGQGTQVTVSS,high polyreactivity
4,QVQLVESGGGVVQAGGRLRLSCAASGFTFGSNDMGWYRQAPGKETELVAAIDGSGDTYYADSVKGRFTISRDNAKNTVDLQMNSLKPEDTAVYYCAADVIYWFSGEYDYWGQGTQVTVSS,low polyreactivity
5,QVQLVESGGGVVQAGGSLRFSCAASGRTFVVNAMGWYREAPGKERELVAAITRRGGITYYADSVKGRFTISRDNAKNSVYLQMNSLTPEDTAVYYCAADRSYYPDTRTTYGYNYWGQGTQVTVSS,low polyreactivity
6,QVQLVESGGGVVQAGGSLRISGAASGSIFPFNAMVWYRQAPGKERELVAAIRRSGGSTYYADSVQGRFTISRYNAKNTVDLQMNSLKPEATAVYYCATDPEWPLPAYYYWGQGTQVTVSS,low polyreactivity
7,QVQLVESGGGVVQAGGSLRLSCAASGFIFFINDMGWDRQAPGKERELVAAISWSGGSTYYADSVKGRFTISRDNAKNTVYLQMNSLIPEDTAVYYCNTDVPTAQYDYWGQGTQVTVSS,low polyreactivity
8,QVQLVESGGGVVQAGGSLRLSCAASGFIFGYYATGWYRQAPGKERELVDAFTRSGGSTRYADSVKGRFTISRDNAKNTVYLHMNSLKPEDSAVYYCNAYAPRQLYGYDYWGQGTQVTVSS,high polyreactivity
9,QVQLVESGGGVVQAGGSLRLSCAASGFTFWRYAMGWSRQAPGKDRELVAVITWSGTRTYYADSVKGRFTLSRDTAKITVYVQMNSLNPDAPAVYYCAAYITDVAGRAYDYWGQGTQVTVSS,high polyreactivity
10,QVQLVESGGGVVQAGGSLRLSCAASGITFSYYTMGWSRQAPGKERELVAAINWTGGDTYYADSVKGRFTISRDNAKNTVYLQMNSLNPEDTAVYYCNADYPYFYRFTAEYDYWGQGPQVTVSS,low polyreactivity
11,QVQLVESGGGVVQAGGSLRLSCAASGRICVRYAMGWYRQAPGKERELVAAISTRGGSTYYADSVKGRFTISRDNAKYTVYFQMNSLKPEDTAVYYCAARGVGPQPGYQRFNYWGQGTQVTVSS,high polyreactivity
12,QVQLVESGGGVVQAGGSLRLSCAASGRIFDIYAMGWYRQAPGKARELVAAITRGGSTYADSVKGRFTISRDNAKYTVYLQMNSLKPEVTAVYYCAASLYSYRSPYTFYYWGQGTQVTVSS,high polyreactivity
13,QVQLVESGGGVVQAGGSLRLSCAASGRIFHRYTMGWYRQARGKERELVAVISGLGGSTYYADSVKGRFTISRDNAKNTVYLQMNSLKPEDTAVYYCNRVGKYWSSDDSWGQGTQVTVSS,high polyreactivity
14,QVQLVESGGGVVQAGGSLRLSCAASGRIFRYTMGWYRQAPGKETELVADITRHGGSTYYADSVKGRFTISRDNAKNTVYLQMNSLKPEDTAVYYCAADHLSYRRRYEYWGQGTQVTVSS,low polyreactivity
15,QVQLVESGGGVVQAGGSLRLSCAASGRIFVSYAMGWYRQAPGKERELVASISGRGGSTYYADSVKGRFTISRDNAKNTVELQMNSLKPEDTAVYYCNKVARTRRITTYDYWGQGTQVTVSS,high polyreactivity
16,QVQLVESGGGVVQAGGSLRLSCAASGRIFVVYVMGWYRQAPGKEREFVAAITWGGGNTYYADSVKGRFTISRDNAKNTVYLQMNSLKPEDTAVYYCAAADGDDTTFRYDYWGQGTQVTVSS,low polyreactivity

row,Sequence,polyreactivity (PSR sort gate)
1,QVQLVESGGGVVQAGGSLRLSCAASGRISRGNAMGWYRPAPGKEREFVAAISWSGDGTYYADSVKGRFTISRDNAKYTVYLQMNSLNPEDTAVYYCNTAVKVERDYWGQGTQVTVSS,low polyreactivity
2,QVQLVESGGGVVQAGGSLRLSCAASGRNFVYNAMGLYRQAPGKERELVAAIYSGGRTYYADSVKGRFTISRDNAKNTVYFKMYSLKPEDTAVYYCAARWYVLPTQTRPYYGYYYWGQGTQVTVSS,high polyreactivity
3,QVQLVESGGGVVQAGGSLRLSCAASGRNFYSYAMGLYTQAPGKERELVAAISKRGTSTYYADSVKGRFTISRDNAKNTVYLQMNSLKPEDTAVYYCAAVHWRYQYSLRYDYWGQGTQVTVSS,high polyreactivity
4,QVQLVESGGGVVQAGGSLRLSCAASGRTFKKYAMGWYRQAPGKEREFVARITYSAGSTYYADSVKGRFTISRDNAKNSVYLQMNSLKPEDTAVYYCASRFASSGPRWYSRHGEYDYWGQGTQVTVSS,low polyreactivity
5,QVQLVESGGGVVQAGGSLRLSCAASGRTFPLYAMGWYRQAPGKERELVAAIRTGGSTNYADSVKGRFTISRDNAKNTVYLQMNSLKPEDTAVYYCAAVQRTDRSAHYSWGQGTQVTVSS,low polyreactivity
6,QVQLVESGGGVVQAGGSLRLSCAASGRTFRPYAMGWYRQAPGKERELVAAIDSSGTSTYYADSVKGRFTISRDNAKNSVYLQMNSLKPEDTAVYYCAKAWPDHWYSRYDYWGQGTQVTVSS,low polyreactivity
7,QVQLVESGGGVVQAGGSLRLSCAASGSIFNGYAMGWYRQAPGNEWELVAAISGNGGRTYYADSVKGRFTFSRDYAKNTVYLQMNSLKPEETADYYCNKVSGYYVDYWGQGSQVTVSS,high polyreactivity
8,QVQLVESGGGVVQAGGSLRLSCAASGSIFNRYAMGWYRQAPGKERELVAAISTHTGTTYYADSVKGRFTISRDNAKNTVYLQMNSLKPEDTAVYYCNAATYGGRYYYWGQGTQVTVSS,high polyreactivity
9,QVQLVESGGGVVQAGGSLRLSCAASGSIFQSYAMGWYRQAPGKERELVAAISYSGDGPFYADSVKGRFTISRDNAKKTVYLQMNSLKPEDTAVYYCAASSTGYGGSTYYYWGQGTQVTVSS,low polyreactivity
10,QVQLVESGGGVVQAGGSLRLSCAASGSIIWWYAMGWYRQAPGKERELVARMNKRSGSTYYADSVKGRFTISRDNAKNTVYLLRNSLKPEDTAVYYCAATWRSSGIAFFYWGQGTQVTLSS,high polyreactivity
11,QVQLVESGGGVVQAGGSLRLSCAASGSTCSWYVMGWYRQAPGKERELVASISRSGGSTYYADSVKGRFTISRDNAKNTVYLQMNSLKPEDTAVYYCAARQAGYSGRKLYYWAQGTQVTVSS,low polyreactivity
12,QVQLVESGGGVVQAGGSLRLSCAASGSTFDVYAMGWYRQAPGKERELVAAITSGGTTNYADSVKGRFTNSRDNAKNTVYLQMNSLKPEDTAVYYCAADSPWGGGYFVLYNYWGQGTQVTVSS,low polyreactivity
13,QVQLVESGGGVVQAGGSLRLSCAASGSTFGINCYGMYRQAPGKERELVAGISVSGGSTYYADSVKGRFTISRDNAKNTVYLKMNSLKPEDSAVYYCNRDTTVFLIYSYGYWGQGTQVTVSS,low polyreactivity
14,QVQLVESGGGVVQAGGSLRLSCAASGSTISPYAMGWYRPAPGKERELVAAISSGGSTSYADSVKGRFTISRDNAKNTVYLQMNSLKPEDTAVYYCHASSPGEVPVYDYDYWGQGTQVTVSS,low polyreactivity
15,QVQLVESGGGVVQAGGSLRLSCAASGSTLAGYAMGWYRPAPGKERELVAAIDWTGGSTTYADSVKGRFTISRDYAKNTVYLQMNCLKPDDTAVYSCNVVLGVNGDYWGQGCQVTVSS,low polyreactivity
16,QVQLVESGGGVVQAGGSLRLSCAASVSIFDDYAMGWYRQAPGKERELVASISRTGRTYYADSVKGRFTISRDNAKNTVYLQMNSLKPEDTAVYYCAATRYAPYRRYYYWGQGTQVTVSS,high polyreactivity
